# In publication PMC7736295 (Cell Discovery, 2020):
# Numbering of substitutions follows the chain as printed. Names may count otherwise.
# B1: Mint1-C-CID (residues 371-397) (domain or fragment, UniProt O35430 371-397, looked up)
# chain: YTPDEPKEPIWVMRQDISPTRDCDDQR
# notes: C-terminal half of the CID of Mint1, residues 371-397; source: E. coli BL21 (DE3), purified (Ni2+-Sepharose, size-exclusion chromatography); not shown: Trx, N-terminal, cleaved; His6, N-terminal, cleaved
# B2: CASK-CaMK (residues 1-337) (domain or fragment)
# chain: MADDDVLFEDVYELCEVIGKGPFSVVRRCINRETGQQFAVKIVDVAKFTSSPGLSTEDLKREASICHMLKHPHIVELLETYSSDGMLYMVFEFMDGADLCFEIVKRADAGFVYSEAVASHYMRQILEALRYCHDNNIIHRDVKPHCVLLASKENSAPVKLGGFGVAIQLGESGLVAGGRVGTPHFMAPEVVKREPYGKPVDVWGCGVILFILLSGCLPFYGTKERLFEGIIKGKYKMNPRQWSHISESAKDLVRRMLMLDPAERITVYEALNHPWLKERDRYAYKIHLPETVEQLRKFNARRKLKGAVLAAVSSHKFNSFYGDPPEELPDFSEDPTS
# B3: Mint1-CID (residues 338-397) (domain or fragment, UniProt O35430 338-397, looked up)
# chain: QRYSKEKRDAISLAIKDIKEAIEEVKTRTIRSPYTPDEPKEPIWVMRQDISPTRDCDDQR
# notes: also called the entire CID; the whole CID; source: E. coli BL21 (DE3), purified (Ni2+-Sepharose, size-exclusion chromatography); not shown: Trx, N-terminal, cleaved; His6, N-terminal, cleaved
# B4: Mint1-CID (residues 338-397) I352A I355A I359A (domain or fragment, UniProt O35430 338-397, looked up)
# chain: B3 chain with I15A, I18A, I22A
# notes: Mint1-CID residues 338-397 with I352A, I355A and I359A; Probably made as the wild-type fragment (E. coli, Trx-His6 tag removed); also called the mutations in the N-CID; source: recombinant protein
# B5: Mint1-CID (residues 338-397) W381A (domain or fragment, UniProt O35430 338-397, looked up)
# chain: B3 chain with W44A
# notes: Mint1-CID residues 338-397 with W381A; Probably made as the wild-type fragment (E. coli, Trx-His6 tag removed); also called the C-CID W381A mutation; source: recombinant protein
# Legend:
# [1] = target: T1, CASK-CaMK (residues 1-337) (UniProt Q62915 1-337); test: ITC; MicroCalorimeter ITC200, 25 °C; Mint1 fragments and mutants injected into CASK-CaMK in the cell; repeated three times; conditions: both partners purified
# T1 construct: CaMK domain of CASK, residues 1-337; also called CASK(residues 1-337); source: E. coli BL21 (DE3), purified (Ni2+-Sepharose, size-exclusion chromatography); not shown: Trx, N-terminal, cleaved; His6, N-terminal, cleaved
# T1 sequence (looked up): B2 chain
# [2] = target: T2, Mint1-CID (residues 338-397) I352A I355A I359A (UniProt O35430 338-397, I352A | I355A | I359A); test: ITC
# T2 sequence: B3 chain with I15A, I18A, I22A
# [3] = target: B2; test: ITC
# [4] = target: T3, CASK-CaMK (residues 1-301) (UniProt Q62915 1-301); test: ITC
# T3 chain: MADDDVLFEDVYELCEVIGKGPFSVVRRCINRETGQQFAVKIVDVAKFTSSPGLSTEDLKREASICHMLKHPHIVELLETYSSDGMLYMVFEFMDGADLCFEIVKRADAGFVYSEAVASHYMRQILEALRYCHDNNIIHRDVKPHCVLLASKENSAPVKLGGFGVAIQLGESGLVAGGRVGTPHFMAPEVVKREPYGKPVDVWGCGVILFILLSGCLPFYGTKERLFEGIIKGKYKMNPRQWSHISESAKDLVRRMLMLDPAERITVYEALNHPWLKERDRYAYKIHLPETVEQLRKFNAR
# [5] = target: T4, CASK-CaMK (residues 1-319) (UniProt Q62915 1-319); test: ITC
# T4 chain: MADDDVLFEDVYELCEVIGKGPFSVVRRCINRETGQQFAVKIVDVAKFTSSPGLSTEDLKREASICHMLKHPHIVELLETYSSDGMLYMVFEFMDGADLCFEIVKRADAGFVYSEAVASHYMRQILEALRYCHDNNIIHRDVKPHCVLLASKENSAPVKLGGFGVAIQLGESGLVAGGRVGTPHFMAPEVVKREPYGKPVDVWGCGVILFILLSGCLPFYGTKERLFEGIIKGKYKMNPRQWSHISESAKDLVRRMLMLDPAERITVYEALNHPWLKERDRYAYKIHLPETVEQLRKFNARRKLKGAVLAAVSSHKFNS
binder,measurement,setting,value
B1,Kd,[1],~500 nM
B2,Kd,[2],270 nM
B3,Kd,[1],~20 nM
same,Kd,[3],17 nM
same,Kd,[4],42 nM
same,Kd,[5],30 nM
B4,fold reduction of the binding affinity against the wild-type CID,[1],~15 fold
B5,Kd,[1],~55000 nM
